Experimental data taken from patent US20240254227A1 (Alector, published 2024).
Residue numbers refer to the chain shown, from its start.

T1: human CD300LB on primary human monocytes (human, UniProt A8K4G0 18-201)
T1 construct: Endogenous protein on primary cells; that the target is CD300LB is inferred from the antibodies being anti-CD300LB antibodies; also called Monocyte donor 1281; Monocyte donor 1282
T1 sequence: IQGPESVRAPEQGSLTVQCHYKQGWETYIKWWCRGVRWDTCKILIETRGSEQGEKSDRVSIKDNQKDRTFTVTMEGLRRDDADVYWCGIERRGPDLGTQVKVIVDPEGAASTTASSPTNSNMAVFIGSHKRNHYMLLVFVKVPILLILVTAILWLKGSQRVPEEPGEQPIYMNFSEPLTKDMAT

T2: human CD300LB on primary human macrophages (human, UniProt A8K4G0 18-201)
T2 sequence: T1 sequence

T3: murine CD300D-Fc (mouse)
T3 construct: mouse IgG2a-Fc fusion (R&D Systems); the entry is the whole fusion chain; also called mCD300D; Mouse CD300D-Fc
T3 chain: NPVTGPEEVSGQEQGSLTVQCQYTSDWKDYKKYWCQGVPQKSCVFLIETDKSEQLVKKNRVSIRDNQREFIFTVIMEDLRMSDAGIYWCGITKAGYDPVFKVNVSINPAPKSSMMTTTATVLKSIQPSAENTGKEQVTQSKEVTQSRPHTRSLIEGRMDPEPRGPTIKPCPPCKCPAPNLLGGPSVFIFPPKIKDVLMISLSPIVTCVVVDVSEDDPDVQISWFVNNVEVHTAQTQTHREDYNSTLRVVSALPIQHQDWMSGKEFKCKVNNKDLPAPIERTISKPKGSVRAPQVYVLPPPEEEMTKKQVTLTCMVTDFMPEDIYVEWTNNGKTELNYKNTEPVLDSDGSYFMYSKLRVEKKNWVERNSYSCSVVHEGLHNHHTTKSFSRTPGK

T4: murine CD300F stably expressed on Jurkat cells (mouse, UniProt Q6SJQ7 20-337)
T4 construct: also called muCD300F
T4 sequence: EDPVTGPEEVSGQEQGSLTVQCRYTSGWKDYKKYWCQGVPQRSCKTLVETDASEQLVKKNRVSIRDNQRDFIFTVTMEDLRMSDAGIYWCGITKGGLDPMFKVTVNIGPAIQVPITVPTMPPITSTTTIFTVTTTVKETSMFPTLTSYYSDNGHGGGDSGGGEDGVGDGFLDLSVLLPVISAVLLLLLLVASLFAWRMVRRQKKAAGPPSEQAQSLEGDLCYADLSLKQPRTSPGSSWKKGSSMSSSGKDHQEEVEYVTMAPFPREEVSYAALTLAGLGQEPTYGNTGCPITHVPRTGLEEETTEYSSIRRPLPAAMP

B1: anti-CD300LB antibody CD-07 (antibody, V domains shown)
VH: QVQLVQSGAEVKKPGASVKVSCKASGYTFTNYRMHWVRQAPGQGLEWMGWINPNSGGTIYAQKFQGRVTMTRDTSTSTVYMELSSLRSEDTAVYYCARDLDYWGQGTLVTVSS
VL: DIQMTQSPSSLSASVGDRVTITCQASQDISNYLNWYQQKPGKAPKLLIYGASSLQSGVPSRFSGSGSGTDFTLTISSLQPEDFATYYCQQSYSTPWTFGPGTKVEIK
B2: anti-CD300LB antibody CD-06 (antibody, V domains shown)
VH: QVQLVQSGAEVKKPGASVKVSCKASGYTFTTYAVHWVRQAPGQGLEWMGIVNPNSGGTNYAQKFQGRVTMTRDTSTSTVYMELSSLRSEDTAVYYCARDIVPMNNFYNYYYGMDVWGQGTTVTVSS
VL: B1 VL with Q24R, D28S, N31S, G50A, A51T, S53T, S93R, T94I, W96Y, P100Q
B3: anti-CD300LB antibody CD-05 (antibody, V domains shown)
VH: QVQLVQSGAEVKKPGASVKVSCKASGYTFSRYYINWVRQAPGQGLEWMGWINPNSGGTNYAQKFQGRVTMTRDTSTSTVYMELSSLRSEDTAVYYCTTDQLRFGKTGPYYGMDVWGQGTTVTVSS
VL: B1 VL with Q24R, D28N, S30G, N31T, G50A, T94D, P95T, W96L, P100G
B4: anti-CD300LB antibody CD-12 (antibody, V domains shown)
VH: QIQLVQSGPELKKPGETVKISCKASGYTFTDYSMHWVRQAPGKGLKWMAWINTETGEATHADDFKGRFDFSLDTSASTAYLQIKNLKNEDTGIYFCVCYGSSYGMDYWGQGTSVTVSS
VL: DIVLTQSPASLPVSLGQRATISCRASKSVRTSGASYMHWYQQKPGQPPKLLIYLASNLKSGVPTRFSGSGSGTDFTLNIHPVEEEDAATYYCQHNREVPPTFGGGTKLEIK
B5: anti-CD300LB antibody CD-15 (antibody, V domains shown)
VH: QIQLVQSGPELKKPGETVKISCQVSGYTFTDYSMHWLKQAPGKGLKWMAWINTETGESTYTDEFKGRFVFSLETSVRTAYLKINNLKNEDTATYFCGTYGSSYGMAYWGQGTSVTVSS
VL: B4 VL with R30S, A34S, M37L, N57K, K59E, T64A, S67R
B6: anti-CD300LB antibody CD-17 (antibody, V domains shown)
VH: QIQLVQSGPELKKPGETVKISCKASGYTLTDYSMHWVKQAPGKGLKWMGWINTETGEPRYGDDFKGRFAFSLETSASSAYLQINNLKNDDTATYFCATYGRSYGMDFWGQGTSVTVSS
VL: B4 VL with P12A, R30S, T31P, A34H, T64A, E85G, V98L, T106S
B7: anti-CD300LB antibody CD-18 (antibody, V domains shown)
VH: DVQLQESGPDLVKPSQSLSLTCTVTGYSITSGYSWHWIRQFPDNKLEWMGYILSRGDTNFNPSLKSRISITRSTSNNQFFLHFNSVTTEDTATYYCARDFFDYWGQGTTLTVSS
VL: DVLMTQTPLSLPVSLGDQASISCRSSQSIVHSNGNTYLEWYLQKPGQSPKLLIYKVSDRFSGVPDRFSGSGSGTDFTLKISRVEAEDLGVYFCFQGSHVPYTFGGGTKLEIK
B8: anti-CD300LB antibody CD-11 (antibody, V domains shown)
VH: QIQLVQSGPEVKKPGETVKISCKASGYTLTDYSMHWVMQTPGTGLKWMAWMNTETGEPTYADDFKGRFAFSLETSAGTAYLQIDNLKNEDTATYFCATYGKSYGMKYWGQGTSVTVSS
VL: DIVLTQSPPSLAVSLGQRATISCRATKSVSPYLHWYQQTPGQPPKLLIYLASNLDSGVPARFSGSGSGTDFTLNIHPVEEEDAATYYCQHNKELPPTFGGGTRLEIK

Columns and labels:
[1] = target: T1, human CD300LB on primary human monocytes; test: flow cytometry, primary human monocytes donor 1283, 10 ug/mL antibody, isotype control subtracted
Method: (§1) Human monocytes from various donors were isolated from whole blood using RosetteSep Human Monocyte Enrichment Cocktail (Stemcell technologies) and Ficoll centrifugation per manufacturer protocols. After lysing red blood cells with ACK lysing buffer, monocytes were resuspended in complete media (RPMI, 10% FBS, Pen/Strep, L-glutamine, HEPES, non-essential amino acid, Sodium pyruvate). To obtain macrophages from these isolated monocytes, 100 ng/ml human M-CSF and 8% v/v human serum were added to the cells for 5-7 days. Cells were counted on the day of the experiment and plated at 100,000 cells per well in a round-bottom 96 well plate. Cells were incubated with TruStain Fc block and 10 μg/mL antibody for 1 hour on ice before washing with 250 μL ice cold PBS twice. Cells were then incubated with the appropriate APC-conjugated secondary antibodies for 20 minutes in the dark on ice. Finally, cells were washed twice with ice cold FACS buffer and then resuspended in 100 μL FACS buffer containing 1% propidium iodide. Samples were immediately analyzed using a BD FACSCanto flow cytometer. The gMFI was calculated using FlowJo software minus the gMFI of the appropriate isotype control.

[2] = target: T1, human CD300LB on primary human monocytes; test: flow cytometry, primary human monocytes donor 1282, 10 ug/mL antibody, isotype control subtracted
Method: as §1

[3] = target: T1, human CD300LB on primary human monocytes; test: flow cytometry, primary human monocytes donor 1284, 10 ug/mL antibody, isotype control subtracted
Method: as §1

[4] = target: T2, human CD300LB on primary human …; test: flow cytometry, primary human macrophages donor 1275, 10 ug/mL antibody, isotype control subtracted
Method: as §1

[5] = target: T3, murine CD300D-Fc; test: SPR (Carterra LSA), antibody immobilised, Fc fusion at 300 or 600 nM
Method: Binding of mouse anti-CD300LB IgG1 antibodies of the present disclosure to human and murine CD300 orthologs were evaluated by surface plasmon resonance (SPR) using a Carterra LSA instrument (Carterra, Salt Lake City, UT). […] A HC200M sensor chip (Carterra) was activated using the single channel flow cell with a 7-minute injection of a 1:1:1 mixture of 100 mM MES pH 5.5, 100 mM sulfo-NHS, 400 mM EDC (all reconstituted in MES pH 5.5; 100 μL of each mixed in vial immediately before running assay). After switching to the multi-channel array flow cell, the antibodies were injected over the activated chip in a 96-spot array for 10 minutes. The remaining unconjugated active groups on the chip were then blocked by injecting 1M Ethanolamine pH 8.5 (Carterra) for 7 minutes using the single channel flow cell. After priming with running buffer (HBS-TE, Carterra) with 0.5 mg/ml BSA (Sigma), the immobilized anti-CD300LB antibodies were tested for their ability to bind human and mouse recombinant CD300LB extracellular domains. Human CD300 family members and mouse CD300A were hIgG1-Fc fusions, while mouse CD300LB, mouse CD300C, mouse CD300D, and mouse CD300E were mouse IgG2a-Fc fusions (R&D Systems). Binding was assessed by injecting each analyte over the entire antibody array using the single channel flow cell. CD300 analytes were diluted to 300 nM or 600 nM in running buffer and injected in series without regeneration. Two or three buffer blanks were run between each mouse or human ortholog, respectively. Data were processed and analyzed using NextGenKIT high-throughput kinetics analysis software (Carterra).
Results of anti-CD300LB antibody binding to murine CD300 family members is provided below in Table 8.

[6] = target: T4, murine CD300F stably expressed on …; test: flow cytometry, stable Jurkat cells, 10 ug/mL, isotype subtracted
Method: Purified anti-CD300LB antibodies of the present disclosure were analyzed for cross-reactivity to other murine CD300 family members stably expressed in Jurkat cells (generation of which is described above). Cells were counted and labeled with 200 nM CFSE, 500 nM VioBlue, or a combination of the two to discriminate between muCD300LB, Parental cells, CD300F, and the other CD300 family members. Cells were washed thoroughly with PBS containing 2% fetal bovine serum then resuspended at a total of 240,000 cells per well. Purified antibodies at 10 μg/mL were added and incubated for one hour before the cells were washed twice again and stained with an APC-labeled anti-mouse secondary. Cells were then analyzed using a BD FACSCanto II. Antibodies were analyzed for specific binding to muCD300LB by FlowJo software by gating on live cells, then the APC gMFI calculated for each labeled population by subtracting the gMFI of the isotype control. The gMFI results of the analysis are presented below in Table 4.

| Binder | gMFI [1] [gMFI] | gMFI [2] [gMFI] | gMFI [3] [gMFI] | gMFI [4] [gMFI] | SPR binding (control subtracted) [5] | gMFI [6] [gMFI] |
| --- | --- | --- | --- | --- | --- | --- |
| B1 | 47 | 468 | -189 | 2700 |  |  |
| B2 | 2470 | 3440 | 1010 | 26900 |  |  |
| B3 | 935 | 1560 | 166 | 61000 |  |  |
| B4 |  |  |  |  | 0.6 | 2.1 |
| B5 |  |  |  |  | 1.7 | 1.85 |
| B6 |  |  |  |  | 0.8 | 1.7 |
| B7 |  |  |  |  | 0.6 | 6.6 |
| B8 |  |  |  |  | -0.1 | 2.35 |
